Target: the molecule itself
Assay: SEC-MALS; Superdex 200 10/300 GL, 25 mM Tris pH 7.4, 0.2 g/L NaN2, 0.5 mL/min

B1: Drosophila melanogaster CP190 BTB domain (residues 1-135) (domain or fragment, UniProt Q24478 1-135, looked up)
chain: MGEVKSVKVDNWGVFFLQKLQNFFNKTDYCDLTLQFRDNSQLKVHRLVLSACTDYFNVLEQTCEIVDDALIMPNEFQADVVVPIVNFMYTGTLEFELKMYGKLLRTAKEMNMTVLLKLLEAHRRTMENVNRQQRP
notes: CP190 (centrosome associated protein at 190 kDa), Drosophila melanogaster, BTB domain, residues 1-135; the final crystal model holds residues 2-121; Native and selenomethionine-substituted protein were crystallised; also called BTB-WT; source: E. coli BL21 DE3 (pLysS), purified (Ni-NTA, thrombin digestion, Q-sepharose ion exchange); not shown: His6, N-terminal, cleaved
  stoichiometry N: 2

Source: PMC4674064, “Newly Characterized Region of CP190 Associates with Microtubules and Mediates Proper Spindle Morphology in Drosophila Stem Cells” (PLoS ONE, 2015)
